Laboratory results: patent US20250368978A1, “SQUALENE HOPENE CYCLASE VARIANTS FOR PRODUCING SCLAREOLIDE” (INTERNATIONAL FLAVORS & FRAGRANCES INC., priority 2022, published 2025)
Substitutions are numbered along the chain they refer to. Names may count otherwise.

B1: V45L + Q54E + R249R + I278T + T326S: GmSHC variant with these substitutions relative to SEQ ID NO: 2; R249R is a silent mutation (protein)
chain: MSPADISTKSSSFQRLDNMLPEAVSSACDWLIDQQKPDGHWVGPLESNACMEAEWCLALWFLGQEDHPLRPRLAQALLEMQREDGSWGIYVGADHGDINTTVEAYAALRSMGYAADMPIMAKSAAWIQQKGGLRNVRVFTRYWLALIGEWPWDKTPNLPPEIIWLPDNFIFSIYNFAQWARATMMPLTILSARRPSRPLLPENRLDGLFPEGRENFDYELPVKGEEDLWGRFFRAADKGLHSLQSFPVRRFVPREAAIRHVIEWIIRHQDADGGWGGTQPPWIYGLMALSVEGYPLHHPVLAKAMDALNDPGWRRDKGDASWIQASNSPVWDTMLAVLALHDAGAEDRYSPQMDKAIGWLLDRQVRVKGDWSIKLPDTEPGGWAFEYANDKYPDTDDTAVALIALAGCRHRPEWRERDIEGAISRGVNWLLAMQSSSGGWGAFDKDNNRSILTKIPFCDFGEALDPPSVDVTAHVLEAFGLLGISRNHPSVQKALAYIRSEQERNGAWFGRWGVNYVYGTGAVLPALAAIGEDMTQPYIVRACDWLMSVQQENGGWGESCASYMDINAVGHGVATASQTAWALIGLLAAKRPKDREAIARGCQFLIERQEDGSWTEEEYTGTGFPGYGVGQAIKLDDPSLPDRLLQGAELSRAFMLRYDLYRQYFPVMALSRARRMMKEDASAAA
modifications: Gluconobacter morbifer
notes: R249R is a silent mutation
B2: V45L + Q54E + R249R + I278T + T326S + A574A: GmSHC variant with these substitutions relative to SEQ ID NO: 2 (protein)
chain: B1 chain
modifications: Gluconobacter morbifer
B3: V45L + Q54E + V222Q + R249R + I278T + T326S + A683E: GmSHC variant with these substitutions relative to SEQ ID NO: 2 (protein)
chain: B1 chain with V222Q, A683E
modifications: Gluconobacter morbifer
B4: V45L + Q54E + V222R + I278T + T326S + R348R: GmSHC variant with these substitutions relative to SEQ ID NO: 2 (protein)
chain: B1 chain with V222R
modifications: Gluconobacter morbifer
B5: V45L + Q54E + V222K + R249R + I278T + T326S: GmSHC variant with these substitutions relative to SEQ ID NO: 2 (protein)
chain: B1 chain with V222K
modifications: Gluconobacter morbifer
B6: V45L + Q54E + Q178S + V222R + 1278T + T326S: GmSHC variant with these substitutions relative to SEQ ID NO: 2 (protein)
chain: B1 chain with Q178S, V222R
modifications: Gluconobacter morbifer
B7: V45L + Q54E + V222Q + Y284W + R249R + 1278T + T326S: GmSHC variant with these substitutions relative to SEQ ID NO: 2 (protein)
chain: B1 chain with V222Q, Y284W
modifications: Gluconobacter morbifer
B8: V45L + Q54E + Q178S + V222K + I278S + T326S: GmSHC variant with these substitutions relative to SEQ ID NO: 2 (protein)
chain: B1 chain with Q178S, V222K, T278S
modifications: Gluconobacter morbifer
B9: V45L + Q54E + V222K + I278A + T326S: GmSHC variant with these substitutions relative to SEQ ID NO: 2 (protein)
chain: B1 chain with V222K, T278A
modifications: Gluconobacter morbifer
B10: V45L + Q54E + R249R + I278A + T326S: GmSHC variant with these substitutions relative to SEQ ID NO: 2 (protein)
chain: B1 chain with T278A
modifications: Gluconobacter morbifer
B11: Q178S: GmSHC mutation Q178S selected by site-saturation mutagenesis (protein)
chain: B1 chain with L45V, E54Q, Q178S, T278I, S326T
modifications: Gluconobacter morbifer
notes: GmSHC mutation Q178S selected by site-saturation mutagenesis
B12: Y284W: GmSHC variant Y284W from site saturation mutagenesis (protein)
chain: B1 chain with L45V, E54Q, T278I, Y284W, S326T
B13: M184T: GmSHC mutant M184T from site saturation mutagenesis (protein)
chain: B1 chain with L45V, E54Q, M184T, T278I, S326T
modifications: Gluconobacter morbifer
notes: GmSHC mutant M184T from site saturation mutagenesis
B14: A683E: GmSHC mutation A683E in the C-terminal domain (protein)
chain: B1 chain with L45V, E54Q, T278I, S326T, A683E
modifications: Gluconobacter morbifer
notes: GmSHC mutation A683E in the C-terminal domain

Assay: SHC variant screening reactions: conversion of HFA to sclareolide by freeze-dried whole cells, GC analysis
Type: biochemical, Gluconobacter morbifer
Conditions: 10 mg/mL HFA, 100% enzyme loading; based on % peak area; relative to V45L+Q54E+I278T+T326S variant; no metal ions
Method: SHC Variant Enzyme Expression. Wild-type and the GmSHC variants of Table 5 were individually cloned into pET28a(+). These DNA constructs were transformed into Lemo21 (DE3) E. coli and plated onto agar plates containing Kanamycin. These were incubated overnight at 37° C. A single bacterial colony was picked and used to inoculate 10 mL LB+Kanamycin in a 50 mL falcon tube. This primary culture was incubated overnight at 37° C. with agitation. These cultures (10 mL) were used to inoculate 1L LB+Kanamycin in a shake flask, which was subsequently incubated at 37° C. at 180 rpm for about 4 hours. Protein expression was then induced with the addition of 0.4 mM IPTG and 0.2 mM L-rhamnose. The incubator temperature was lowered to 25° C. and the cultures further incubated at 180 rpm overnight. The next day, the cultures were centrifuged at 4000 rpm for 10 minutes and the supernatant discarded. Cell pellets were resuspended in 0.1 M Potassium phosphate buffer pH 7.4 and exposed to 1 round of freeze/thawing before lyophilization and then use in the reaction assay.
SHC Variant Screening Reactions. Sodium citrate buffer 0.2 M, pH 5 was prepared and 500 μL of this buffer was added to freeze-dried whole cells of each variant (from 1 L shake flask fermentation of E. coli transformed with desired variant plasmid). The results were obtained with an enzyme loading of 50% (w/w). Subsequently, HFA (20 mg/mL) was added to the buffer/enzyme mix. The reactions were incubated at 25° C. with agitation for 72 hours. To stop the reaction and extract the products, a 2X volume of 3:2, heptane: isopropanol was added to each reaction. These were then incubated at 37° C. for 30 minutes with agitation to mix thoroughly. The reactions were centrifuged for 10 minutes at 4000 rpm to pellet any cellular material. The upper organic layer was then removed and placed in a clean gas chromatography (GC) vial.
GC Analysis Method. A GC analytical method was used to detect each of the starting materials and products used in the screening reactions. Due to the volume of samples generated, a fast method was developed with a run time of only 4.5 minutes.
No metal ions were included in the reaction.
Further analysis was conducted to identify one or more optimal SHC enzymes. In particular, substrate loading was increased to 20 mg/mL and incubation with a reduced enzyme loading (50%).

Molecule	Fold improvement (sclareolide production) [Fold]
B1	4.2

Same assay, conditions: 20 mg/mL HFA, 50% enzyme loading; relative to initial mutant

Molecule	Fold improvements (sclareolide production) [Fold]
B2	27
B3	44.6
B4	60
B5	33.2
B1	7
B6	43.8
B7	46.2
B8	37.3
B9	20.4
B10	25.6

Assay: Effect of single mutations of GmSHC on activity (site saturation mutagenesis / summary of variants)
Type: biochemical, Gluconobacter morbifer
Conditions: single position in GmSHC, SEQ ID NO: 2 numbering
From the text: Three different approaches were taken to generate SHC variants: rational mutagenesis (site-directed mutagenesis), semi-rational mutagenesis (via site-saturation library), and random mutagenesis (error prone PCR). Variants were expressed in a heterologous system and screened by GC.
To improve the conversion of HFA to sclareolide, GmSHC was mutated at one or more of the residues at position 45, 54, 178, 184, 222, 278, 284, 326, 348, 574 and 683 of SEQ ID NO: 2. Silent mutations at positions 249, 348, and 574 identified in an error prone library, were also introduced in the GmSHC of SEQ ID NO: 2.

Molecule	effect of mutation on activity
B11	improving activity
B12	increases activity
B13	increase in activity
B14	positive effect on activity
